Assay results taken from US20120316071A1 (published 2012).

Tests used:
[1] = target: T1, rHuman ErbB2/Fc Chimera, CF (R&D Systems Cat#1129-ER) (human, UniProt P04626 23-652); experiment: MSD multispot ECL, antigen spotted, Fab 9.3 nM; blank spot 287
T1 construct: Bought reagent; also called human epidermal growth factor 2 receptor

[2] = target: T2, rHuman HGF R/c-MET/Fc Chimera, CF (R&D Systems Cat#358-MT/CF) (human, UniProt P08581 25-932); experiment: as above
T2 construct: Bought reagent; also called HGF R/Fc; hepatocyte growth factor receptor
T2 sequence (P08581 25-932, change not shown): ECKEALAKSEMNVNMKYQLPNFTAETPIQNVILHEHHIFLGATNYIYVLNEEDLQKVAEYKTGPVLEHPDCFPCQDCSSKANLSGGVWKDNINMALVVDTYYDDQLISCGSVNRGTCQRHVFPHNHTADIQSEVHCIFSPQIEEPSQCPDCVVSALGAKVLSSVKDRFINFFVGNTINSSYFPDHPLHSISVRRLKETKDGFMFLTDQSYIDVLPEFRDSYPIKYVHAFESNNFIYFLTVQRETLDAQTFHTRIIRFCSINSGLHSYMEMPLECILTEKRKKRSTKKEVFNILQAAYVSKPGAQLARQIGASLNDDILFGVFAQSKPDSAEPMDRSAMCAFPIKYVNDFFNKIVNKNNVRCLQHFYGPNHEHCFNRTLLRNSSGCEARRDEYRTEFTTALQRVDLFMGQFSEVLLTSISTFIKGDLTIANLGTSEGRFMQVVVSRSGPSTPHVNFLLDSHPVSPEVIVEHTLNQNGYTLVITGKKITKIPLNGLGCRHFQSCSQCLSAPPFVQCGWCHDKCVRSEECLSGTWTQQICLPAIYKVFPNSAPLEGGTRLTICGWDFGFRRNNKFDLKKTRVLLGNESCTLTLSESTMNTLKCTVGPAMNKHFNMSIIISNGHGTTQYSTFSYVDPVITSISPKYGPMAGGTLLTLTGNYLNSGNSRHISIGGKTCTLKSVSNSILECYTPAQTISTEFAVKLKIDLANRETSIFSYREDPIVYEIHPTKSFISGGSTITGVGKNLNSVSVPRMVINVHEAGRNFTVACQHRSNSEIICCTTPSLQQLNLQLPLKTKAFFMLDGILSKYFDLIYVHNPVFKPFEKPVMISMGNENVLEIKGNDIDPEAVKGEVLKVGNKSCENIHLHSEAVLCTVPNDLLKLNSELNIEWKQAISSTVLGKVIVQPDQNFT

[3] = target: T3, rHuman Notch-1/Fc Chimera, CF (R&D Systems Cat#3647-TK) (human, UniProt P46531 19-526); experiment: as above
T3 construct: Bought reagent

[4] = target: T4, rHuman Erythropoietin R/Fc Chimera, CF (R&D Systems Cat#963-ER) (human, UniProt P19235 25-250); experiment: as above
T4 construct: Bought reagent; also called EPO R/Fc; Epo R
T4 sequence (looked up): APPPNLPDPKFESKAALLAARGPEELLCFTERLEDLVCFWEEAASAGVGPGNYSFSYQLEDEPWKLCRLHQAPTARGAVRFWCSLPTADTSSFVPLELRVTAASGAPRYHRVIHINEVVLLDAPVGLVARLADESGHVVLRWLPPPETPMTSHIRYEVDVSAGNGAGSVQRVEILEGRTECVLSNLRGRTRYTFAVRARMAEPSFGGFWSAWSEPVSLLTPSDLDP

[5] = target: T5, Recombinant Human DLL4 (R&D Systems Cat#1506-D4/CF) (human, UniProt Q9NR61 27-524); experiment: MSD multispot ECL, antigen spotted, Fab 595.8 nM; blank spot 285
T5 construct: Bought recombinant protein; also called rHuman DLL4; delta-like protein 4

[6] = target: T1, rHuman ErbB2/Fc Chimera, CF (R&D …); experiment: as above
[7] = target: T6, rHuman EGF R/Fc Chimera, CF (R&D Systems Cat#344-ER) (human, UniProt P00533 25-645); experiment: as above
T6 construct: Bought reagent; also called epidermal growth factor receptor

[8] = target: T2, rHuman HGF R/c-MET/Fc Chimera, CF (R&D …); experiment: as above
[9] = target: T3, rHuman Notch-1/Fc Chimera, CF (R&D …); experiment: as above
[10] = target: T7, rHuman CD44/Fc Chimera, CF (R&D Systems Cat#3660-CD) (human, UniProt P16070 21-220); experiment: as above
T7 construct: Bought reagent

[11] = target: T8, rHuman IGF-1 sR, (IGF-1 sR), CF (R&D Systems Cat#391-GR) (human, UniProt P08069 31-932); experiment: as above
T8 construct: Bought soluble receptor; also called insulin-like growth factor-1 soluble receptor

[12] = target: T4, rHuman Erythropoietin R/Fc Chimera, CF …; experiment: as above
[13] = target: T9, Recombinant Human DLL4 (R&D Systems Cat#1506-D4/CF) (human, UniProt Q9NR61 27-524); experiment: MSD Multispot ECL, antigen spotted on plate, Fab at 240 nM; blank spot 316
T9 construct: Bought recombinant protein; also called rHuman DLL4; delta-like protein 4

[14] = target: T10, rHuman Notch-1/Fc Chimera, CF (R&D Systems Cat#3647-TK) (human, UniProt P46531 19-526); experiment: as above
T10 construct: Bought Fc chimera; Fc part of the bought chimera not given

[15] = target: T11, rHuman CD44/Fc Chimera, CF (R&D Systems Cat#3660-CD) (human, UniProt P16070 21-220); experiment: as above
T11 construct: Bought Fc chimera; Fc part of the bought chimera not given

[16] = target: T12, rHuman P-Cadherin/Fc Chimera, CF (R&D Systems Cat#861-PC) (human, UniProt P22223 108-654); experiment: as above
T12 construct: Bought Fc chimera; Fc part of the bought chimera not given

[17] = target: T13, rHuman Erythropoietin R/Fc Chimera, CF (R&D Systems Cat#963-ER) (human, UniProt P19235 25-250); experiment: as above
T13 construct: Bought Fc chimera; also called EPO R/Fc; Epo R; Fc part of the bought chimera not given
T13 sequence (looked up): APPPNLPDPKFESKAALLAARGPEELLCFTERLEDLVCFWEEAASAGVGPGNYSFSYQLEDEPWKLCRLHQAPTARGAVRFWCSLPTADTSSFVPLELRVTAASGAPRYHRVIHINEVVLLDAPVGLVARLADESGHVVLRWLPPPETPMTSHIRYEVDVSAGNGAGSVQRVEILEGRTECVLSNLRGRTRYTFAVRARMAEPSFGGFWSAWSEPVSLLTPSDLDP

[18] = target: T14, rHuman Erythropoietin R/Fc Chimera, CF (R&D Systems Cat#963-ER) (human, UniProt P19235 25-250); experiment: ECL multispot (MSD) assay, spotted antigen; Fab 200.00 (head prints uM)
T14 construct: Bought recombinant protein; also called EPO R; EPO R/Fc; Fc part of the bought chimera not given
T14 sequence (looked up): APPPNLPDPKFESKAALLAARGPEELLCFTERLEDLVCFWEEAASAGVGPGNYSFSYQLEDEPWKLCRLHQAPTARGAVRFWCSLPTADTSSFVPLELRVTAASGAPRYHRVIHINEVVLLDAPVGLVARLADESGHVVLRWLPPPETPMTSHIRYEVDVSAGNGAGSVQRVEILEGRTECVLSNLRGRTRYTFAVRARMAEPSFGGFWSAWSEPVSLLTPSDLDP

[19] = target: T15, rHuman ErbB2/Fc Chimera, CF (R&D Systems Cat#1129-ER) (human, UniProt P04626 23-652); experiment: as above
T15 construct: Bought recombinant protein; Fc part of the bought chimera not given

[20] = target: T16, rHuman P-Cadherin/Fc Chimera, CF (R&D Systems Cat#861-PC) (human, UniProt P22223 108-654); experiment: as above
T16 construct: Bought recombinant protein; Fc part of the bought chimera not given

B1: Fab VH1-46_IGHD6-6*01_IGHJ1*01 & L6_IGKJ1*01 (Fab, V domains shown)
VH: QVQLVQSGAEVKKPGASVKVSCKASGYTFTSYYMHWVRQAPGQGLEWMGIINPSGGSTSYAQKFQGRVTMTRDTSTSTVYMELSSLRSEDTAVYYCAREEYSSSSAEYFQHWGQGTLVTVSS
VL: not shown
notes: Only variable domains are tied to the molecule; Tested as a Fab made in E. coli: heavy chain from Plasmid A (CH1 constant region, His6 and Flag tags), kappa light chain from Plasmid C (kappa CL); also called parent Hit Fab against DLL4; VH1-46_IGHD6-6*01_IGHJ1*01 & L6_IGKJ1*01 (parental)
[1]
  ECL signal: 354 ECL signal
[2]
  ECL signal: 324 ECL signal
[3]
  ECL signal: 492 ECL signal
[4]
  ECL signal: 306 ECL signal
[5]
  ECL signal: 17200 ECL signal
[6]
  ECL signal: 321 ECL signal
[7]
  ECL signal: 403 ECL signal
[8]
  ECL signal: 353 ECL signal
[9]
  ECL signal: 306 ECL signal
[10]
  ECL signal: 372 ECL signal
[11]
  ECL signal: 335 ECL signal
[12]
  ECL signal: 378 ECL signal

B2: Fab VH6-1_IGHD3-3*01_IGHJ4*01 & V4-3_IGLJ4*01 (Fab, V domains shown)
VH: QVQLQQSGPGLVKPSQTLSLTCAISGDSVSSNSAAWNWIRQSPSRGLEWLGRTYYRSKWYNDYAVSVKSRITINPDTSKNQFSLQLNSVTPEDTAVYYCAREYYDFWSGYYTDYFDYWGQGTLVTVSS
VL: QPVLTQPTSLSASPGASARLTCTLRSGINLGSYRIFWYQQKPESPPRYLLSYYSDSSKHQGSGVPSRFSGSKDASSNAGILVISGLQSEDEADYYCMIWHSSASFVFGGGTQLIIL
notes: Tested as a purified germline Fab made in E. coli; The VH was cloned into plasmid A (CH1 constant region, His6 and Flag tags) and the lambda VL into plasmid E (lambda CL)
[13]
  ECL signal: 1270
[14]
  ECL signal: 368
[15]
  ECL signal: 470
[16]
  ECL signal: 383
[17]
  ECL signal: 478

B3: Fab VH5-51_IGHD5-18*01>3_IGHJ4*01 G100K/G104T & V3-4_IGLJ1*01 (Fab, V domains shown)
VH: EVQLVQSGAEVKKPGESLKISCKGSGYSFTSYWIGWVRQMPGKGLEWMGIIYPGDSDTRYSPSFQGQVTISADKSISTAYLQWSSLKASDTAMYYCARRKYSYTYDYFDYWGQGTLVTVSS
VL: QTVVTQEPSFSVSPGGTVTLTCGLSSGSVSTSYYPSWYQQTPGQAPRTLIYSTNTRSSGVPDRFSGSILGNKAALTITGAQADDESDYYCVLYMGSGISYVFGTGTKVTVL
notes: Tested as a Fab; The constant parts are the same as for the parent Fab (CH1 with His6/Flag tags, lambda CL); also called KT double mutant; H:KT
[18]
  ECL signal/noise ratio: 1.7
[19]
  ECL signal/noise ratio: 1.7
[20]
  ECL signal/noise ratio: 2
